Data on four molecules can be found in patent US20230114801A1 (SYSTIMMUNE, published 2023).

The target in one assay is T1, human 4-1BB (human, UniProt Q07011 24-186, limits assumed).
T1 construct: Soluble antigen in Octet; construct not described
As to the kind of experiment: BLI (Octet), binder on AHC sensor; antigen conditions not stated.

The target in the next assay is T2, human PD-L1 (human, UniProt Q9NZQ7 19-238).
T2 construct: Soluble antigen in Octet; bought; also called human PD-L1 (Acro PD1-H5229)
Described as above.

A further assay concerns the target T3, CD19 (UniProt P15391 20-291, limits assumed).
T3 sequence (looked up): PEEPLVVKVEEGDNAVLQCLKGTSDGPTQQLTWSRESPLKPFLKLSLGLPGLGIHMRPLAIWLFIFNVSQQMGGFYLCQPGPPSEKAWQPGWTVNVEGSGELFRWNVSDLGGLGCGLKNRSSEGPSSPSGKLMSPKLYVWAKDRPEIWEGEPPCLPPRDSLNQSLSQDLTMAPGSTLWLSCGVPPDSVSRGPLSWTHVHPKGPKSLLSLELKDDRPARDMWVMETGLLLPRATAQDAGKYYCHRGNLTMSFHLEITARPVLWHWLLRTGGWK
The description is as above.

The target in assay [1] is T4, human CD3 (human, UniProt P07766 23-126; P04234 22-105).
T4 construct: also called His-tagged human CD3; human CD3 (Acro CDD-H52W1)
The assay is described as follows: BLI (Octet), binder on AHC sensor, His-tagged human CD3 (series from 200 nM or single 100 nM), 1:1 fit.

Assay [2] deals with T4, human CD3. As to the kind of experiment: BLI (Octet), binder on AHC sensor, 100 nM human CD3, 1:1 fit. On the technique in general: In BLI a coated tip is dipped into the sample, and binding shifts an interference pattern.
Another assay has as its target T5, human HER3 (human, UniProt P21860 20-643).
T5 construct: Soluble antigen in Octet; bought; also called human HER3 (Acro ER3-H5223)
As to the kind of experiment: BLI (Octet), binder on AHC sensor, 200 nM human HER3, 1:1 fit.

For another assay, the target named is T6, human EGFR (human, UniProt P00533 25-645, limits assumed).
T6 construct: Soluble antigen in Octet; construct not described
As to the kind of experiment: BLI (Octet), binder on AHC sensor, 200 nM human EGFR, 1:1 fit.

B1: SI-68P19 (other)
chain 1: DVVMTQSPSSLSASVGDRVTISCQASESISSWLAWYQQKPGQAPKLLIYEASKLASGVPSRFSGSGSGTEFTLTISSLEPEDFATYYCQGYFYFISRTYVNSFGGGTKVEIKGGGGSGGGGSGGGGSGGGGSQQLVESGGGLVKPGGSLRLSCAASGFTISTNAMSWVRQAPGKGLEWVGVITGRDITYYASWAKGRFTISKTSKNTVYLQMNSLRAEDTAVYYCARDGGSSAITSNNIWGQGTLVTVSSGGGGSGGGGSQVQLQQSGPGLVKPSETLSITCTVSGFSLTNYGVHWIRQAPGKGLEWLGVIWSGGNTDYNTPFTSRFTITKDNSKNQVYFKLRSVRADDTAIYYCARALTYYDYEFAYWGQGTLVTVSSASTKGPSVFPLAPSSKSTSGGTAALGCLVKDYFPEPVTVSWNSGALTSGVHTFPAVLQSSGLYSLSSVVTVPSSSLGTQTYICNVNHKPSNTKVDKRVEPKSCDKTHTCPPCPAPEAAGGPSVFLFPPKPKDTLMISRTPEVTCVVVDVSHEDPEVKFNWYVDGVEVHNAKTKPREEQYNSTYRVVSVLTVLHQDWLNGKEYKCAVSNKALPAPIEKTISKAKGQPREPQVYTLPPSRDELTKNQVSLSCAVKGFYPSDIAVEWESNGQPENNYKTTPPVLDSDGSFFLVSKLTVDKSRWQQGNVFSCSVMHEALHNHYTQKSLSLSPGGGGGSGGGGSDVVMTQSPSSVSASVGDRVTITCQASQNIRTYLSWYQQKPGKAPKLLIYAAANLASGVPSRFSGSGSGTDFTLTISDLEPGDAATYYCQSTYLGTDYVGGAFGGGTKLTVLGGGGSGGGGSGGGGSGGGGSEVQLVESGGGLVQPGGSLRLSCTASGFTISSYHMQWVRQAPGKGLEYIGTISSGGNVYYASSARGRFTISRPSSKNTVDLQMNSLRAEDTAVYYCARDSGYSDPMWGQGTLVTVSS
chain 2: ENVLTQSPASLSASPGERVTITCSASSSVSYMHWYQQKPGQAPKLWIYDTSKLASGVPSRFSGSGSGNDHTLTISSMEPEDFATYYCFQGSVYPFTFGQGTKVTVLGGGGSGGGGSGGGGSGGGGSQVTLKESGPGLVQPGQTLSLTCAFSGFSLSTSGMGVGWIRQPPGKGLEWLAHIWWDDDKRYNPALKSRLTISKDTSKNQVYLQMNSLDAEDTAVYYCARMELWSYYFDYWGQGTLVTVSSGGGGSGGGGSEIVLTQSPSTLSVSPGERATFSCRASQSIGTNIHWYQQKPGKPPRLLIKYASESISGIPDRFSGSGSGTEFTLTISSVQSEDFAVYYCQQNNNWPTTFGPGTKLTVLRTVAAPSVFIFPPSDEQLKSGTASVVCLLNNFYPREAKVQWKVDNALQSGNSQESVTEQDSKDSTYSLSSTLTLSKADYEKHKVYACEVTHQGLSSPVTKSFNRGECGGDKTHTCPPCPAPEAAGGPSVFLFPPKPKDTLMISRTPEVTCVVVDVSHEDPEVKFNWYVDGVEVHNAKTKPREEQYNSTYRVVSVLTVLHQDWLNGKEYKCAVSNKALPAPIEKTISKAKGQPREPQVYTLPPSRDELTKNQVSLWCLVKGFYPSDIAVEWESNGQPENNYKTTPPVLDSDGSFFLYSKLTVDKSRWQQGNVFSCSVMHEALHNRFTQKSLSLSPGGGGGSGGGGSDIQMTQSPSTLSASVGDRVTITCQASQSISSHLNWYQQKPGKAPKLLIYKASTLASGVPSRFSGSGSGTEFTLTISSLQPDDFATYYCQQGYSWGNVDNVFGGGTKVTVLGGGGSGGGGSGGGGSGGGGSEVQLLESGGGLVQPGGSLSLSCAASGFSFSSGYDMCWVRQAPGKGLEWIACIAAGSAGITYDANWAKGRFTISRDNSKNTLYLQMNSLRAEDTAVYYCARSAFSFDYAMDLWGQGTLVTVSS
notes: penta-miniGNC; D1 αCD3**** (humanized framework 3), D2 αCD19, D3 αEGFR (Fab), D4 α4-1BB, D5 αPD-L1
For B1, the Kd with human 4-1BB stood at 21.2 nM; with human PD-L1, 0.7 nM; with CD19, 3.44 nM; in the assay with human CD3 [1], 16.7 nM.

B2: SI-75X9 (bispecific antibody, human IgG1, kappa, L234A L235A)
chain 1: QVQLQESGGRLVQPGEPLSLTCKTSGIDLSSNAIGWVRQAPGKGLEWIGVIFGSGNTYYASWAKGRFTISRSTSTVYLKMNSLRSEDTAIYYCARGGYSSDIWGQGTLVTVSSASTKGPSVFPLAPSSKSTSGGTAALGCLVKDYFPEPVTVSWNSGALTSGVHTFPAVLQSSGLYSLSSVVTVPSSSLGTQTYICNVNHKPSNTKVDKRVEPKSCDKTHTCPPCPAPEAAGGPSVFLFPPKPKDTLMISRTPEVTCVVVDVSHEDPEVKFNWYVDGVEVHNAKTKPREEQYNSTYRVVSVLTVLHQDWLNGKEYKCAVSNKALPAPIEKTISKAKGQPREPQVYTLPPSRDELTKNQVSLSCAVKGFYPSDIAVEWESNGQPENNYKTTPPVLDSDGSFFLVSKLTVDKSRWQQGNVFSCSVMHEALHNHYTQKSLSLSPG
chain 2: QVQLVQSGGGLVQAGGSLSLSCAFSGRTFSMYTMGWFRQAPGKEREFVAANRGRGLSPDIADSVNGRFTISRDNAKNTLYLQMDSLKPEDTAVYYCAADLQYGSSWPQRSSAEYDYWGQGTTVTVSSGGGGSGGGGSDPQLTQSPSSLSATVGQRVTINCQSSQSVAKNNNLAWFQQKPGKPPKLLIYSASTLAAGVPSRFSGSGSGTQFTLTITRVQSEDFATYYCSARDSGNIQSFGGGTRVEIKRTVAAPSVFIFPPSDEQLKSGTASVVCLLNNFYPREAKVQWKVDNALQSGNSQESVTEQDSKDSTYSLSSTLTLSKADYEKHKVYACEVTHQGLSSPVTKSFNRGECGGDKTHTCPPCPAPEAAGGPSVFLFPPKPKDTLMISRTPEVTCVVVDVSHEDPEVKFNWYVDGVEVHNAKTKPREEQYNSTYRVVSVLTVLHQDWLNGKEYKCAVSNKALPAPIEKTISKAKGQPREPQVYTLPPSRDELTKNQVSLWCLVKGFYPSDIAVEWESNGQPENNYKTTPPVLDSDGSFFLYSKLTVDKSRWQQGNVFSCSVMHEALHNRFTQKSLSLSPG
notes: bi-miniGNC; D2 αHER3 VHH, D3 αCD3* (Fab)
On to B2, for which the figures for the Kd in the assay with human CD3 [2] and with human HER3 were 84.2 nM and 3.86 nM, respectively.

B3: SI-75X15 (bispecific antibody, human IgG1, kappa, L234A L235A)
chain 1: QVQLQESGGRLVQPGEPLSLTCKTSGIDLSSNAIGWVRQAPGKGLEWIGVIFGSGNTYYASWAKGRFTISRSTSTVYLKMNSLRSEDTAIYYCARGGYSSDIWGQGTLVTVSSASTKGPSVFPLAPSSKSTSGGTAALGCLVKDYFPEPVTVSWNSGALTSGVHTFPAVLQSSGLYSLSSVVTVPSSSLGTQTYICNVNHKPSNTKVDKRVEPKSCDKTHTCPPCPAPEAAGGPSVFLFPPKPKDTLMISRTPEVTCVVVDVSHEDPEVKFNWYVDGVEVHNAKTKPREEQYNSTYRVVSVLTVLHQDWLNGKEYKCAVSNKALPAPIEKTISKAKGQPREPQVYTLPPSRDELTKNQVSLSCAVKGFYPSDIAVEWESNGQPENNYKTTPPVLDSDGSFFLVSKLTVDKSRWQQGNVFSCSVMHEALHNHYTQKSLSLSPG
chain 2: DPQLTQSPSSLSATVGQRVTINCQSSQSVAKNNNLAWFQQKPGKPPKLLIYSASTLAAGVPSRFSGSGSGTQFTLTITRVQSEDFATYYCSARDSGNIQSFGGGTRVEIKRTVAAPSVFIFPPSDEQLKSGTASVVCLLNNFYPREAKVQWKVDNALQSGNSQESVTEQDSKDSTYSLSSTLTLSKADYEKHKVYACEVTHQGLSSPVTKSFNRGECGGDKTHTCPPCPAPEAAGGPSVFLFPPKPKDTLMISRTPEVTCVVVDVSHEDPEVKFNWYVDGVEVHNAKTKPREEQYNSTYRVVSVLTVLHQDWLNGKEYKCAVSNKALPAPIEKTISKAKGQPREPQVYTLPPSRDELTKNQVSLWCLVKGFYPSDIAVEWESNGQPENNYKTTPPVLDSDGSFFLYSKLTVDKSRWQQGNVFSCSVMHEALHNRFTQKSLSLSPGGGGGSGGGGSQVQLVQSGGGLVQAGGSLSLSCAFSGRTFSMYTMGWFRQAPGKEREFVAANRGRGLSPDIADSVNGRFTISRDNAKNTLYLQMDSLKPEDTAVYYCAADLQYGSSWPQRSSAEYDYWGQGTTVTVSS
notes: bi-miniGNC; D3 αCD3* (Fab), D5 αHER3 VHH
B3: the Kd is 38.1 nM with human CD3 [2] and 13.7 nM with human HER3.

B4: SI-75X4 (other)
chain 1: EVQLQESGGGLVQAGDSLSLSCLVSGRSFNSYTMGWFRQAPGKEREFVAAILWSGPTTYYADSVKGRFTISRDNAKNTVYLQMNSLKPEDTAVYYCAAALGVLVLAPGNVYSYWGQGTQVTVSSGGGGSGGGGSEVQLVESGGGLVQPGGSLRLSCAASGFTISTNAMSWVRQAPGKGLEWIGVITGRDITYYASWAKGRFTISRDNSKNTLYLQMSSLRSEDTAVYYCARDGGSSAITSNNIWGQGTLVTVSSASTKGPSVFPLAPSSKSTSGGTAALGCLVKDYFPEPVTVSWNSGALTSGVHTFPAVLQSSGLYSLSSVVTVPSSSLGTQTYICNVNHKPSNTKVDKRVEPKSCDKTHTCPPCPAPEAAGGPSVFLFPPKPKDTLMISRTPEVTCVVVDVSHEDPEVKFNWYVDGVEVHNAKTKPREEQYNSTYRVVSVLTVLHQDWLNGKEYKCAVSNKALPAPIEKTISKAKGQPREPQVYTLPPSRDELTKNQVSLSCAVKGFYPSDIAVEWESNGQPENNYKTTPPVLDSDGSFFLVSKLTVDKSRWQQGNVFSCSVMHEALHNHYTQKSLSLSPG
chain 2: QVQLVQSGGGLVQAGGSLSLSCAFSGRTFSMYTMGWFRQAPGKEREFVAANRGRGLSPDIADSVNGRFTISRDNAKNTLYLQMDSLKPEDTAVYYCAADLQYGSSWPQRSSAEYDYWGQGTTVTVSSGGGGSGGGGSDVVMTQSPSTLSASVGDRVTINCQASESISSWLAWYQQKPGKAPKLLIYEASKLASGVPSRFSGSGSGTEFTLTISSLQPDDFATYYCQGYFYFISRTYVNSFGGGTKVEIKRTVAAPSVFIFPPSDEQLKSGTASVVCLLNNFYPREAKVQWKVDNALQSGNSQESVTEQDSKDSTYSLSSTLTLSKADYEKHKVYACEVTHQGLSSPVTKSFNRGECGGDKTHTCPPCPAPEAAGGPSVFLFPPKPKDTLMISRTPEVTCVVVDVSHEDPEVKFNWYVDGVEVHNAKTKPREEQYNSTYRVVSVLTVLHQDWLNGKEYKCAVSNKALPAPIEKTISKAKGQPREPQVYTLPPSRDELTKNQVSLWCLVKGFYPSDIAVEWESNGQPENNYKTTPPVLDSDGSFFLYSKLTVDKSRWQQGNVFSCSVMHEALHNRFTQKSLSLSPG
notes: tri-miniGNC; D1 αEGFR VHH, D2 αHER3 VHH, D3 αCD3 (Fab)
In the case of B4, the Kd with human CD3 [2] was determined as 26.3 nM; with human EGFR, 51.5 nM; in the assay with human HER3, 7.68 nM.

Usually Kd stands for the equilibrium constant for the complex coming apart. Lower therefore signals tighter binding.
